In patent US20190300605A1 (Pfizer, published 2019):

T1: recombinant mouse MAdCAM (mouse, UniProt Q61826 22-365)
T1 sequence (looked up): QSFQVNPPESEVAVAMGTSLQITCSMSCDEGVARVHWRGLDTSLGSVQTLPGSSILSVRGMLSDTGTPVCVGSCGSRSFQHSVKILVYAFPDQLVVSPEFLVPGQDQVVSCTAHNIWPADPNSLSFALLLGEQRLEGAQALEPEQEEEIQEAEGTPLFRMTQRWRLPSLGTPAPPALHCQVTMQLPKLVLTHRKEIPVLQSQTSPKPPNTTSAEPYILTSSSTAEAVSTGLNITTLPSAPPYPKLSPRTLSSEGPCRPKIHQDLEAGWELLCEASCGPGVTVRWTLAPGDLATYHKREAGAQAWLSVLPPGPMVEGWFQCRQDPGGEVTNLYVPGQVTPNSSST

T2: human MAdCAM (full length) (human, UniProt Q13477 19-382)
T2 sequence (looked up): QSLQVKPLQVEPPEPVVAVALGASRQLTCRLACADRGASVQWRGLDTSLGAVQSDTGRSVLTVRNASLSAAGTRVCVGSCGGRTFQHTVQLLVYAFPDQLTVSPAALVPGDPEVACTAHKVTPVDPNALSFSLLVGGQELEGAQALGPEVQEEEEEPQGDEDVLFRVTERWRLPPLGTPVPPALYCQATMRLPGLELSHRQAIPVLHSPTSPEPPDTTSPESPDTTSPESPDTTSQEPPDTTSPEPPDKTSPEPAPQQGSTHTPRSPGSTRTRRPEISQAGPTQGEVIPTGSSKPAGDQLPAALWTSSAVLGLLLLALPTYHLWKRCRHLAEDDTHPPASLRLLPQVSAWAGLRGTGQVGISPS

T3: chimeric cynomolgus/human MAdCAM (cynomolgus; human, UniProt Q13477 226-382, limits assumed)
T3 sequence: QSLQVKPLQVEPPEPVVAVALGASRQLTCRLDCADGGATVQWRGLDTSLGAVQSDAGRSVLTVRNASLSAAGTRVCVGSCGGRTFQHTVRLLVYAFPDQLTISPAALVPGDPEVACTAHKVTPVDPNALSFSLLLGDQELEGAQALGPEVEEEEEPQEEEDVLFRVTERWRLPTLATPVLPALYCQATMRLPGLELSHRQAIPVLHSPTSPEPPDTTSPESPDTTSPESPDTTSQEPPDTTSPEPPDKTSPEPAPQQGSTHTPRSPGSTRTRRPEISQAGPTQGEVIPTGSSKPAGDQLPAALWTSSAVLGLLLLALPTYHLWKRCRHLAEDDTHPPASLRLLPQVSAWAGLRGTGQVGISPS

B1: anti-MAdCAM monoclonal antibody 1.7.2 (antibody, human IgG2, kappa, V domains shown)
VH: EVQLVESGGGLVKPGGSLRLSCVASGFTFTNAWMIWVRQAPGKGLEWVGRIKRKTDGGTTDYAAPVKGRFTISRDDSKNTLYLQMNSLKTEDTAVYYCTTGGVAEDYWGQGTLVTVSS
VL: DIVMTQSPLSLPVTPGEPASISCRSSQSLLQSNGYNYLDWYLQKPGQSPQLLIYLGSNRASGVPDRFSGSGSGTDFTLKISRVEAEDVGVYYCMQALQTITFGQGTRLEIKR
notes: human IgG2 kappa from hybridoma 1.7.2; biotinylated for staining of human sections
B2: anti-MAdCAM monoclonal antibody 1.8.2 (antibody, human IgG2, kappa, V domains shown)
VH: EVQLVESGGGLVKPGGSLRLSCVVSGFTFTNAWMIWVRQAPGKGLEWVGRIKRKTDGGTTDYAAPVKGRFTISRDDSKNTLYLQMNSLKTEDTAVYYCTTGGVAEDYWGQGTLVTVSS
VL: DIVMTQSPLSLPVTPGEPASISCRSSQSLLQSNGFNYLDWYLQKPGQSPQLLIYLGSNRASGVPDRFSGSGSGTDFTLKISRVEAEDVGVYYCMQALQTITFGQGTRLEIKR
notes: human IgG2 kappa from hybridoma 1.8.2
B3: anti-MAdCAM monoclonal antibody 6.14.2 (antibody, human IgG4, kappa, V domains shown)
VH: EVQLLESGGGLVQPGGSLRLSCAASGLTFNNSAMTWVRQAPGKGLEWVSTTSGSGGTTYYADSVKGRFTISRDSPKNTLYLQMNSLRAEDTAVYYCAARGYSYGTTPYEYWGQGTLVTVSS
VL: DIQMTQSPSSLSASVGDRVTITCRASRSISSYLNWYQQKPGKAPKVLIFFVSSLQSGVPSRFSGSGSGTDFTLTISSLQPEDFATYYCQQNYIPPITFGQGTRLEIRR
notes: human IgG4 kappa from hybridoma 6.14.2
B4: anti-MAdCAM monoclonal antibody 6.73.2 (antibody, human IgG4, kappa, V domains shown)
VH: EVQLLESGGDLVQPGGSLRLSCAASGFTFRSYAMNWVRQAPGKGLEWVSVISGRGGTTYYADSVKGRFTISRDNSKNTLYLQMNSLRAEDAAVYYCAKIAVAGEGLYYYYGMDVWGQGTTVTVSS
VL: DIQMTQSPSSLSASVGDRVTFTCRASQNITNYLNWYQQKPGKAPKLLIYAASSLPRGVPSRFRGSGSGTDFTLTISSLQPEDFATYYCQQSYSNPPECGFGQGTTLDIKR
notes: human IgG4 kappa from hybridoma 6.73.2
B5: modified anti-MAdCAM monoclonal antibody 6.34.2-mod (antibody, human IgG2, kappa, V domains shown)
VH: QVQLVESGGGVVQPGRSLRLSCAASGFTFSSYGMHWVRQAPGKGLEWVAVISNDGNNKYYADSVKGRFTISRDNSKNTLYLQMNSLRAEDTAVYYCARDSTAITYYYYGMDVWGQGTTVTVSS
VL: DIQMTQSPSSLSASVGDRVTITCRASQSISSYLNWYQQKPGKAPKLLIYAASGLKRGVPSRFSGSGSGTDFTLTISSLQPEDFATYYCHQSYSLPFTFGPGTKVDIKR
B6: modified anti-MAdCAM monoclonal antibody 7.26.4-mod (antibody, human IgG2, kappa, V domains shown)
VH: QVQLVQSGAEVKKPGASVKVSCEASGYTFTSYGIDWVRQAPGQGLEWMGWISVYSGNTNYAQKLQGRVTMSTDTSTSTAYMELRSLRSDDTAVYYCAREGSSSSGDYYYGMDVWGQGTTVTVSS
VL: DIVMTQTPLSLSVTPGQPASISCKSSQSLLYSDGKTYLFWYLQKPGQPPQLLIYEVSNRFSGVPDRFSGSGSGTDFTLKISRVEAEDVGVYYCMQSIQLPWTFGQGTKVEIKR
B7: anti-MAdCAM monoclonal antibody 6.77.1 (antibody, human IgG4, kappa, V domains shown)
VH: EVQLVESGGGLVKPGGSLRLSCAASGFTFSSYSMNWVRQAPGKGLEWVSSISSSSSYIYYADSVKGRFTISRDNAKNSLYLQMNSLRAEDTAVYYCARDGYSSGWSYYYYYGMDVWGQGTTVTVSS
VL: DIVMTQTPLSLSVTPGQPASISCNSSQSLLLSDGKTYLNWYLQKPGQPPQLLIYEVSNRFSGVPDRFSGSGSGTDFTLKISRVEAEDVGVYSCMQSIQLMCSFGQGTKLEIKR
notes: human IgG4 kappa from hybridoma 6.77.1
B8: modified anti-MAdCAM monoclonal antibody 6.77.1-mod (antibody, human IgG2, kappa, V domains shown)
VH: EVQLVESGGGLVKPGGSLRLSCAASGFTFSSYSMNWVRQAPGKGLEWVSSISSSSSYIYYADSVKGRFTISRDNAKNSLYLQMNSLRAEDTAVYYCARDGYSSGWSYYYYYGMDVWGQGTTVTVSS
VL: DIVMTQTPLSLSVTPGQPASISCKSSQSLLLSDGKTYLNWYLQKPGQPPQLLIYEVSNRFSGVPDRFSGSGSGTDFTLKISRVEAEDVGVYSCMQSIQLMSSFGQGTKLEIKR
B9: anti-MAdCAM monoclonal antibody 7.16.6 (antibody, human IgG2, kappa, V domains shown)
VH: QVQLVQSGAEVKKPGASVKVSCKASGYTFTSYGINWVRQAPGQGLEWMGWISVYSGNTNYAQKVQGRVTMTADTSTSTAYMDLRSLRSDDTAVYYCAREGSSSSGDYYYGMDVWGQGTTVTVSS
VL: DIVMTQTPLSLSVTPGQPASISCKSSQSLLHTDGTTYLYWYLQKPGQPPQLLIYEVSNRFSGVPDRFSGSGSGTDFTLKISRVEAEDVGIYYCMQNIQLPWTFGQGTKVEIKR
notes: Alexa488-labelled in the sandwich ELISA, biotinylated for staining of human sections
B10: modified anti-MAdCAM monoclonal antibody 6.22.2-mod (antibody, human IgG2, kappa, V domains shown)
VH: QVQLVESGGGVVQPGRSLRLSCAASGFTFSSDGMHWVRQAPGKGLEWVAIIWYDGSNKYYADSVKGRFTISRDNSKNTLYLQMNSLRAEDTAVYYCARDPGYYYGMDVWGQGTTVTVSS
VL: EIVLTQSPDFQSVTPKEKVTITCRASQRIGSSLHWYQQKPDQSPKLLIKYASQSFSGVPSRFSGSGSGTDFTLTINSLEAEDAATYYCHQSGRLPLTFGGGTKVEIKR
B11: modified anti-MAdCAM monoclonal antibody 6.67.1-mod (antibody, human IgG2, kappa, V domains shown)
VH: QVQLQESGPGLVKPSETLSLTCTVSGDSISSNYWSWIRQPAGKGLEWIGRIYTSGGTNSNPSLRGRVTMSVDTSKNQFSLKLSSVTAADTAVYYCARDRITIIRGLIPSFFDYWGQGTLVTVSS
VL: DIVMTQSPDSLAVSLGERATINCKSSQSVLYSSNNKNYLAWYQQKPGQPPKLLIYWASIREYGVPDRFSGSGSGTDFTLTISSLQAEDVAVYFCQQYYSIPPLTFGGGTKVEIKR

Columns and labels:
recombinant mouse MAdCAM = biological target: T1, recombinant mouse MAdCAM; assay: ELISA
[1] = biological target: MAdCAM-IgG1 Fc fusion protein (human); assay: cell-based or functional assay
[2] = biological target: T2, human MAdCAM (full length); assay: cell-based or functional assay
[3] = biological target: T4, MAdCAM-IgG1 Fc fusion protein (human); assay: SPR BIAcore protocol 1: mAb captured, MAdCAM-IgG1 Fc injected
T4 construct: Made in CHO-DHFR cells; also called MAdCAM-IgFc
Method: To perform kinetic analyses, a high density mouse anti-human (IgG₂ and IgG₄) antibody surface over a CMS BIAcore sensor chip was prepared using routine amine coupling. Hybridoma supernatants were diluted 10, 5, 2-fold in HBS-P (10 mM HEPES pH 7.4, 150 mM NaCl, 0.005% Surfactant P20) running buffer containing 100 μg/mL BSA and 10 mg/mL carboxymethyldextran or used neat. Each mAb was captured onto a separate surface using a […] contact time and a 5 mM wash for stabilization of the mAb baseline. MAdCAM-IgG₁ Fc (141 nM) fusion protein was then injected at over all surfaces for one minute, followed by a 3 mM dissociation. The data were normalized for the amount of antibody captured on each surface and evaluated with global fit Langmuir 1:1, using baseline drift models available on the BIAevaluation software provided by BIAcore.

[4] = biological target: T4, MAdCAM-IgG1 Fc fusion protein; assay: SPR BIAcore protocol 2: mAb amine-coupled, MAdCAM-IgG1 Fc injected
Method: Affinity-purified mAb were immobilized onto the dextran layer of a CMS biosensor chip using amine coupling. […] Samples of MAdCAM-IgG₁ Fc fusion protein in running buffer were prepared at concentrations ranging from 0.2-55 nM (a 0 nM solution comprising running buffer alone was included as a zero reference). Samples were randomized and injected in duplicate for 3 mM each across 4 flow cells using HBS-EP (10 mM HEPES pH 7.4, 150 mM NaCl, 3 mM EDTA, 0.005% Surfactant P20) as running buffer. A flow rate of 100 μL/min was used to minimize mass transport limitations. Dissociation of MAdCAM-IgG₁ Fc fusion protein was monitored for 180 mins, the surface regenerated by a 6 sec injection of 25 mM H₃PO₄ (50 μL/min), or 10 mM (6.22.2), 20 mM (6.67.1, 6.73.2, 6.77.1) to 25 mM (6.34.2) and 45 mM NaOH (6.14.2) and the data analysed using the BIAevaluation (v3.1) software package.

[5] = biological target: T3, chimeric cynomolgus/human MAdCAM; assay: cell-based or functional assay
[6] = biological target: T4, MAdCAM-IgG1 Fc fusion protein; assay: cell-based or functional assay; remark: listed apart in the source

Row | Binder | binding result (recombinant mouse MAdCAM) | Mean IC50, JY cell adhesion to MAdCAM IgG1 Fc fusion [1] [µg/mL] | Mean IC50, JY cell adhesion, MAdCAM FlpIn CHO Assay [2] [µg/mL] | Kd [3] [nM] | koff [3] [s⁻¹] | kon [3] [M⁻¹ s⁻¹] | Kd [4] [nM] | koff [4] [s⁻¹] | kon [4] [M⁻¹ s⁻¹] | Functional IC50, cynomolgus/human MAdCAM-CHO/JY adhesion assay [5] [µg/mL] | MAdCAM IgG1 Fc fusion Assay Mean IC50 (Modified) [6] [µg/mL]
1 | B1 | no binding | 0.03 | 0.052 | ≤ 0.042 | ≤ 1e-05 | 240000 | 0.0236 | 1.3e-07 | 5500 |  | 
2 | B2 | no binding | 0.027 | 0.424 | ≤ 0.035 | ≤ 1e-05 | 290000 | 0.128 | 2.3e-05 | 180000 |  | 
3 | B3 | no binding | 0.011 | 0.291 | ≤ 0.0077 | ≤ 1e-05 | 130000 | < 0.01 | < 5e-06 | 500000 | 0.53 | 
4 | B4 | no binding | 0.02 | 0.369 | 0.093 | 0.00013 | 1.4e+06 |  |  |  |  | 
5 | B5 |  |  |  |  |  |  |  |  |  |  | 0.049
6 | B6 |  |  |  |  |  |  |  |  |  |  | 0.033
7 | B7 | no binding |  | 0.52 | ≤ 0.0067 | ≤ 1e-05 | 1.5e+06 |  |  |  | 0.64 | 
8 | B8 |  |  |  |  |  |  |  |  |  |  | 0.077
9 | B9 | no binding |  |  |  |  |  |  |  |  |  | 
10 | B10 |  |  |  |  |  |  |  |  |  |  | 0.058
11 | B11 |  |  |  |  |  |  |  |  |  |  | 0.037
